Test results reported in patent publication US7902330 (ALBERT EINSTEIN COLLEGE OF MEDICINE OF YESHIVA UNIVERSITY, dated 2011).
Starred links: 1 amine or outer side, 2 acyl side, 3 side chain; linkers in the order of their positions; H or OH if unused. Non-standard residues stand in square brackets, D forms with d. No end group written: not given here. *: point of attachment. 4‑nitrohippuryl = O=C(NCC(=O)*)c1ccc([N+](=O)[O-])cc1; Benzoyl(4-(pyrrol-1-yl)) = O=C(c1ccc(-n2cccc2)cc1)*; 10‑hydroxydecanoyl = O=C(CCCCCCCCCO)*; 2,3‑dihydroxybenzyl = Oc1cccc(C*)c1O; Cysteamide = C(CS[*:3])N[*:1]; Dap = NC[C@H](N)C(=O)O

Columns and labels:
[1] = target: T1, protein kinase Cα (UniProt P17252 1-672, limits assumed); test: cell-based or functional assay
[2] = target: T1, protein kinase Cα; test: PKCα 33P kinase assay, Ki obtained by varying the concentration of peptide substrate Ac-Ser-Phe-Arg-Arg-Arg-NH2
Procedure: Subsequent assay workup and scintillation counting were performed as described under "Protein Kinase C α, β and γ Assay (library screening)".
The reaction was initiated as described above. […] Following an additional 5 min incubation at ambient temperature, 75 µL from each reaction well was transferred into each well of a Unifilter (P81 cellulose phosphate paper) assay plate and washed four times with 0.1% phosphoric acid in water. […] IC$50$ values were calculated using GraFit (Erithacus Software Limited) and K_i values were calculated using Enzyme Kinetics, SigmaPlot (SPSS Inc.)

[3] = target: T2, protein kinase C βI (UniProt P05771-1 1-671, limits assumed); test: cell-based or functional assay
[4] = target: T3, protein kinase C γ (UniProt P05129 1-697, limits assumed); test: cell-based or functional assay
[5] = target: T4, protein kinase C θ (UniProt Q04759 1-706, limits assumed); test: cell-based or functional assay
[6] = target: T5, protein kinase C τ (atypical; ι in the tables) (UniProt P41743 1-596); test: cell-based or functional assay
T5 sequence (looked up): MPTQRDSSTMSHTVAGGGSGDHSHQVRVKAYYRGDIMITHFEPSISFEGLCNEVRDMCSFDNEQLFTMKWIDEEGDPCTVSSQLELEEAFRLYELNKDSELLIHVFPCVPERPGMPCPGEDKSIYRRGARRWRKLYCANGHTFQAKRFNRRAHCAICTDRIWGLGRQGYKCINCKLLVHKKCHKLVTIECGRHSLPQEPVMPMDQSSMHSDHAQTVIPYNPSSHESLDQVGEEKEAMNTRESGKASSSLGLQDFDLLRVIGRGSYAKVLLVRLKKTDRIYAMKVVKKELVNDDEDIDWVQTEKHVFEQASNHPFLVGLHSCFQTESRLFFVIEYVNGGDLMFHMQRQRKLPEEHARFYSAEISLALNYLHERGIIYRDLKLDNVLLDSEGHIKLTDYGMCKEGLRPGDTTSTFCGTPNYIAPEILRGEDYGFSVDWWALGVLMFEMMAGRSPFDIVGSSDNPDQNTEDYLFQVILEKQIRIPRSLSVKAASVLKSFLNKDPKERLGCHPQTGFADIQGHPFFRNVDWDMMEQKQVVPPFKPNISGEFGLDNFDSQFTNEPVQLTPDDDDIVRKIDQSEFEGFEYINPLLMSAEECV

[7] = target: T1, protein kinase Cα; test: cell-based or functional assay; remark: listed apart in the source
[8] = target: T6, protein kinase C η (UniProt P24723 1-683, limits assumed); test: cell-based or functional assay
[9] = target: T7, protein kinase C ζ (UniProt Q05513 1-592, limits assumed); test: cell-based or functional assay
T7 sequence (looked up): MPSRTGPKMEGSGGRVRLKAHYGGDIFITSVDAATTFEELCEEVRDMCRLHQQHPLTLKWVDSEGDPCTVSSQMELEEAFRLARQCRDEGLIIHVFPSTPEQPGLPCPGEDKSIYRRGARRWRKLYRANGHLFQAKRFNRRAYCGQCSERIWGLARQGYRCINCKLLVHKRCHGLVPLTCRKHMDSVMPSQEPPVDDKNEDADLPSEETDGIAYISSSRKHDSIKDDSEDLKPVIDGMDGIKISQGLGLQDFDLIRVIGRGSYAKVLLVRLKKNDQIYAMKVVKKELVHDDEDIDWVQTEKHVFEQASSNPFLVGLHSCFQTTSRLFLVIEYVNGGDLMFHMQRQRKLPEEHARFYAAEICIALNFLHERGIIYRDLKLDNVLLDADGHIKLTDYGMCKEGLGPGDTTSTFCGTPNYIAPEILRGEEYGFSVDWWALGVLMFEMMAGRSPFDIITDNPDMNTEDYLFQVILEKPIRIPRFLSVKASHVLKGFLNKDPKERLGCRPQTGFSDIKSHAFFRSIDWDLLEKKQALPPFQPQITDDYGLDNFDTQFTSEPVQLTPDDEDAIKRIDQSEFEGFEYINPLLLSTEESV

[10] = target: T8, protein kinase C ε (UniProt Q02156 1-737, limits assumed); test: cell-based or functional assay
T8 sequence (looked up): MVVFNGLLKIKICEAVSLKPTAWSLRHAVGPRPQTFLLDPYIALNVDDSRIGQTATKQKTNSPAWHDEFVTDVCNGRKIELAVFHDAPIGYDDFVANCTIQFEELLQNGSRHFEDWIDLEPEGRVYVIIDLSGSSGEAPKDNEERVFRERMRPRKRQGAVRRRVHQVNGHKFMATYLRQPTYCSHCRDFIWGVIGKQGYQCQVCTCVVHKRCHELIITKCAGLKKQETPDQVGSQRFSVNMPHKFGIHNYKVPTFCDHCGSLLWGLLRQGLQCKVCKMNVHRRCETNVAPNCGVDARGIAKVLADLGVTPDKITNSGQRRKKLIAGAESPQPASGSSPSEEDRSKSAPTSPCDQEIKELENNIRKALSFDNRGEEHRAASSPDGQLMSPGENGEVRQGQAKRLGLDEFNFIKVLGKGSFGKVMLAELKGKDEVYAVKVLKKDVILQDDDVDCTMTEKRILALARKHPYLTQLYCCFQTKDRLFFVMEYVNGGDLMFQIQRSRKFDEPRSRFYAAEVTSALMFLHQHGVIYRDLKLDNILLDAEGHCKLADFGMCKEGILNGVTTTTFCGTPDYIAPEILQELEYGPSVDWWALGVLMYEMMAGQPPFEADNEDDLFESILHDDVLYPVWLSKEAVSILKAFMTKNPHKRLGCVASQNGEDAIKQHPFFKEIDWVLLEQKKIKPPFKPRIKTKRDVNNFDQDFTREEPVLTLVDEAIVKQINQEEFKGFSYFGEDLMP

[11] = target: T2, protein kinase C βI; test: cell-based or functional assay; remark: listed apart in the source
[12] = target: T3, protein kinase C γ; test: cell-based or functional assay; remark: listed apart in the source
[13] = target: T4, protein kinase C θ; test: cell-based or functional assay; remark: listed apart in the source
[14] = target: T1, protein kinase Cα; test: cell-based or functional assay; remark: listed apart in the source
[15] = target: T6, protein kinase C η; test: cell-based or functional assay; remark: listed apart in the source
[16] = target: T7, protein kinase C ζ; test: cell-based or functional assay; remark: listed apart in the source
[17] = target: T8, protein kinase C ε; test: cell-based or functional assay; remark: listed apart in the source
[18] = target: T2, protein kinase C βI; test: cell-based or functional assay; remark: listed apart in the source
[19] = target: T3, protein kinase C γ; test: cell-based or functional assay; remark: listed apart in the source
[20] = target: T4, protein kinase C θ; test: cell-based or functional assay; remark: listed apart in the source
[21] = target: T5, protein kinase C τ (atypical; printed ι …); test: cell-based or functional assay; remark: listed apart in the source
[22] = target: T1, protein kinase Cα; test: cell-based or functional assay; remark: listed apart in the source
[23] = target: T6, protein kinase C η; test: cell-based or functional assay; remark: listed apart in the source
[24] = target: T7, protein kinase C ζ; test: cell-based or functional assay; remark: listed apart in the source
[25] = target: T8, protein kinase C ε; test: cell-based or functional assay; remark: listed apart in the source
[26] = target: T5, protein kinase C τ (atypical; printed ι …); test: cell-based or functional assay; remark: listed apart in the source

T6 sequence (P24723 whole entry): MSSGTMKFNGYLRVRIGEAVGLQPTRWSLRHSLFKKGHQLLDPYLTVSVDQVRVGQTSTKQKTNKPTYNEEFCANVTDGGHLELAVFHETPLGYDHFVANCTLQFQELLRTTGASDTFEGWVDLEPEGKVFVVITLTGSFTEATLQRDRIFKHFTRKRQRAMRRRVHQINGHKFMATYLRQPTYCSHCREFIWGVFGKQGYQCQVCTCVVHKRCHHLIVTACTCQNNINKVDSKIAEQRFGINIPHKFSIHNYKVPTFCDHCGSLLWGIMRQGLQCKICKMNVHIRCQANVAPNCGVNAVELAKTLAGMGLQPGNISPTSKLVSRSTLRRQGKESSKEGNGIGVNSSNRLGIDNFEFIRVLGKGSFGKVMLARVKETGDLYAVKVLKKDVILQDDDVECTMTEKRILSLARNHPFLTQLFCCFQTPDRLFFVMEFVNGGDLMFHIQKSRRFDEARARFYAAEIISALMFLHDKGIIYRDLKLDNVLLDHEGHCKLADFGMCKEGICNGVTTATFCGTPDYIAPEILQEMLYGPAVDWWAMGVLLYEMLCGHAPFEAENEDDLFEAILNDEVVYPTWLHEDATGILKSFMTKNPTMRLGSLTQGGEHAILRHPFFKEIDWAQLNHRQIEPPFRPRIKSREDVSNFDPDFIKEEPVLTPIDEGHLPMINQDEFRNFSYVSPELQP
T4 sequence (Q04759 whole entry): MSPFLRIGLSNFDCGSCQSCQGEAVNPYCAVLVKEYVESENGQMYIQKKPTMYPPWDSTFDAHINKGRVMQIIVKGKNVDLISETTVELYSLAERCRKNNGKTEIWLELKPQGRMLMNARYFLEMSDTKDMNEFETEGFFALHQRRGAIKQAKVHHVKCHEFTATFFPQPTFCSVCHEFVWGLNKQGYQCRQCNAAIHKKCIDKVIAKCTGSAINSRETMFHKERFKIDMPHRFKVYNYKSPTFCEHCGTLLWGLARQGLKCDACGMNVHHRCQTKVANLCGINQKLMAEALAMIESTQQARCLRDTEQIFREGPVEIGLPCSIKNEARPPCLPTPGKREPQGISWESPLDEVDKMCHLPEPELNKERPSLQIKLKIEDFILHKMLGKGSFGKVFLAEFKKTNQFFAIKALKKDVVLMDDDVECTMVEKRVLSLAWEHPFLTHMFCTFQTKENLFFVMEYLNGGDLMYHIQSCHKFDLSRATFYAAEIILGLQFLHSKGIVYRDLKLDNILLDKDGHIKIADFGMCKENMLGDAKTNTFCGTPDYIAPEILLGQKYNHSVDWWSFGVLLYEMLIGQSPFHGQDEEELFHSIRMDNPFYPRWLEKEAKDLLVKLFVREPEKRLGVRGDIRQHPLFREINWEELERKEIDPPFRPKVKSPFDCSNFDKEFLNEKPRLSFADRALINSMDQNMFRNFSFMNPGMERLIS
T2 sequence (P05771 whole entry): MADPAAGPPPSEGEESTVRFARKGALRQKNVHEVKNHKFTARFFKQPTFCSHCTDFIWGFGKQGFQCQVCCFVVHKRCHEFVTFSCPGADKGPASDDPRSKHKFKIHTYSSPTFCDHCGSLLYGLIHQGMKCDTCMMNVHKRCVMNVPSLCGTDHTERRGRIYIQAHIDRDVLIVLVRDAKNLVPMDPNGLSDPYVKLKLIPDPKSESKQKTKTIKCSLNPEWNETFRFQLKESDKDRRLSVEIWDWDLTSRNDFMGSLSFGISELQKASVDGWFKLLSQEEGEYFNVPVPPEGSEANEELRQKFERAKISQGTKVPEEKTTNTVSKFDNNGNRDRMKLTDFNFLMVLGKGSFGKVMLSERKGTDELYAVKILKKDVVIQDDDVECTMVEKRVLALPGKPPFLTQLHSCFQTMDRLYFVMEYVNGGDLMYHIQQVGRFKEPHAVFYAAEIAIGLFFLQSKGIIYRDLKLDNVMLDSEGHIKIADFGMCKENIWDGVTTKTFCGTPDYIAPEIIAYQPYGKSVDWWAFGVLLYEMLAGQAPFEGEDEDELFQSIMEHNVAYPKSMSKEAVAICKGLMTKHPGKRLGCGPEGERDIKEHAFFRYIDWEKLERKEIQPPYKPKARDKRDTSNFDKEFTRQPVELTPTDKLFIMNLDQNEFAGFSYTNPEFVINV

B1: compound 4 (diacetylated control peptide) (peptide)
peptide: Ac-ARRGALR[Dap](Ac)A-NH2
notes: also called peptide 4; starting parent peptide 4
[1]
  IC50, PKCα-catalysed phosphorylation of peptide substrate (33P assay): 1100 µM
[2]
  Ki: 350 µM

## {2,3‑dihydroxybenzyl}-RRQG[Dap](4‑nitrohippuryl)FMYF-Cysteamide [Compound F]
[3]
  Fold selectivity (IC50), PKC δ = 1: 172 fold
[4]
  Fold selectivity (IC50), PKC δ = 1: 500 fold
[5]
  Fold selectivity (IC50), PKC δ = 1: 761 fold
[6]
  Fold selectivity (IC50), PKC δ = 1: 26 fold
[7]
  Fold selectivity (IC50), PKC δ = 1: 944 fold
[8]
  Fold selectivity (IC50), PKC δ = 1: 683 fold
[9]
  Fold selectivity (IC50), PKC δ = 1: 200 fold
[10]
  Fold selectivity (IC50), PKC δ = 1: 489 fold
[11]
  IC50, PKC kinase assay (33P, peptide substrate): 3.1 µM
[12]
  IC50, PKC kinase assay (33P, peptide substrate): 9 µM
[13]
  IC50, PKC kinase assay (33P, peptide substrate): 13.7 µM
[14]
  IC50, PKC kinase assay (33P, peptide substrate): 17 µM
[15]
  IC50, PKC kinase assay (33P, peptide substrate): 12.3 µM
[16]
  IC50, PKC kinase assay (33P, peptide substrate): 3.6 µM
[17]
  IC50, PKC kinase assay (33P, peptide substrate): 8.8 µM

## ARRGALR[Dap](Benzoyl(4-(pyrrol-1-yl)))A-Cysteamide (also: further groups not given here, also called peptide 6; Compound H) [compound 6 (primary lead from library IV)]
[18]
  selectivity for PKCα versus this isoform: 385 fold
[19]
  selectivity for PKCα versus this isoform: 580 fold
[20]
  selectivity for PKCα versus this isoform: 1210 fold
[21]
  selectivity for PKCα versus this isoform: 940 fold
[22]
  IC50 as an inhibitor of histone III-S phosphorylation by PKCα: 0.0317 µM
[23]
  selectivity for PKCα versus this isoform: 1310 fold
[24]
  selectivity for PKCα versus this isoform: 640 fold
[25]
  selectivity for PKCα versus this isoform: 600 fold
[1]
  IC50, PKCα-catalysed phosphorylation of peptide substrate (33P assay): 0.0019 µM
[2]
  Ki: 0.0008 µM

## Ac-ARRGALR[Dap](Benzoyl(4-(pyrrol-1-yl)))A-Cysteamide (also called peptide 3) [compound 3 (lead from library III)]
[1]
  IC50, PKCα-catalysed phosphorylation of peptide substrate (33P assay): 4.7 µM
[2]
  Ki: 0.55 µM

## Ac-RRQG[Dap](10‑hydroxydecanoyl)FMYF-Cysteamide [Compound B]
[24]
  IC50, PKC ζ kinase assay: 0.85 µM
  IC50 relative to the diacetylated parent peptide A: ~100 fold

B2: Compound C (peptide)
peptide: Ac-RRQG[Dap](4‑nitrohippuryl)FMYF-Cysteamide
SMILES: CSCC[C@H](NC(=O)[C@H](Cc1ccccc1)NC(=O)[C@H](CNC(=O)CNC(=O)c1ccc([N+](=O)[O-])cc1)NC(=O)CNC(=O)[C@H](CCC(N)=O)NC(=O)[C@H](CCCNC(=N)N)NC(=O)[C@H](CCCNC(=N)N)NC(C)=O)C(=O)N[C@@H](Cc1ccc(O)cc1)C(=O)N[C@@H](Cc1ccccc1)C(=O)NCCS
[24]
  IC50, PKC ζ kinase assay: 6.4 µM

## H-RRQG[Dap]FMYF-Cysteamide (not fully specified (residue 5)) [Compound E (nonacylated free amine)]
[11]
  IC50, PKC kinase assay (33P, peptide substrate): 0.008 µM
  Selectivity (IC50 relative to PKC βI = 1): 1 fold
[12]
  IC50, PKC kinase assay (33P, peptide substrate): 4.4 µM
  Selectivity (IC50 relative to PKC βI = 1): 550 fold
[13]
  IC50, PKC kinase assay (33P, peptide substrate): 14.2 µM
  Selectivity (IC50 relative to PKC βI = 1): 1780 fold
[26]
  Selectivity (IC50 relative to PKC βI = 1): 94 fold
[14]
  IC50, PKC kinase assay (33P, peptide substrate): 3.1 µM
  Selectivity (IC50 relative to PKC βI = 1): 387 fold
[15]
  IC50, PKC kinase assay (33P, peptide substrate): 13.2 µM
  Selectivity (IC50 relative to PKC βI = 1): 1650 fold
[16]
  IC50, PKC kinase assay (33P, peptide substrate): 0.022 µM
  Selectivity (IC50 relative to PKC βI = 1): 2.8 fold
[17]
  IC50, PKC kinase assay (33P, peptide substrate): 2.3 µM
  Selectivity (IC50 relative to PKC βI = 1): 287 fold

## Ac-RRQG[Dap](Ac)FMYF-Cysteamide [Compound A (diacetylated consensus derivative)]
[24]
  IC50, PKC kinase assay: 80 µM
